Results on 5 molecules are retold here after publication PMC9757077, “The B. subtilis Rok protein is an atypical H-NS-like protein irresponsive to physico-chemical cues”.

Series [1] concerns the target T1, Rok (Bacillus subtilis 168, UniProt O34857 1-191).
T1 sequence: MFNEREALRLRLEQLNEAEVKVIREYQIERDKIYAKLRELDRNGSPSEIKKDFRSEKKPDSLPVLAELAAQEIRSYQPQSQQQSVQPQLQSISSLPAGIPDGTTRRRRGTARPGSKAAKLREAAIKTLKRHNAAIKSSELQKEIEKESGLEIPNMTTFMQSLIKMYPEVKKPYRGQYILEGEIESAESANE
The series can be described thus: TPM. The following applies: Hill n=6.5 ± 0.4; 50 mM KCl; MST: 10 mM Tris-HCl pH 8, 150 mM KCl, 5% glycerol, 0.05% Tween20, 0.08 mg/ml acetylated BSA, RT, 40 nM DNA; TPM: 50 mM KCl; bridging: 50 mM KCl ….

The test system of series [2] is Rok Δ75-96 (Bacillus subtilis 168). Description: TPM. The settings on record: Hill n=5.7 ± 0.9; 50 mM KCl; MST: 10 mM Tris-HCl pH 8, 150 mM KCl, 5% glycerol, 0.05% Tween20, 0.08 mg/ml acetylated BSA, RT, 40 nM DNA; TPM: 50 mM KCl; bridging: 50 mM KCl ….
In series [3] the target is Rok with a C-terminal His-tag (Rok-6xHis) (B. subtilis 168) (UniProt O34857).
Series [4] addresses T1, Rok. Description: MST; 10 mM MgCl2; MST: 10 mM Tris-HCl pH 8, 150 mM KCl, 5% glycerol, 0.05% Tween20, 0.08 mg/ml acetylated BSA, RT, 40 nM DNA; TPM: 50 mM KCl; bridging: 50 mM KCl, 25 C. The following applies: protein: recombinant; chain copies: 2; label: 5'-Cy5 top strand; blunt.
For series [5], the target named is T1, Rok. Description: MST; no MgCl2; McGhee-von Hippel n=30 bp; MST: 10 mM Tris-HCl pH 8, 150 mM KCl, 5% glycerol, 0.05% Tween20, 0.08 mg/ml acetylated BSA, RT, 40 nM DNA; TPM: 50 mM KCl; bridging: 50 mM KCl, 25 C. The following applies: protein: recombinant; chain copies: 2; label: 5'-Cy5 top strand; blunt.
The target of series [6] is T1, Rok. Description: MST; up to 35 mM MgCl2; MST: 10 mM Tris-HCl pH 8, 150 mM KCl, 5% glycerol, 0.05% Tween20, 0.08 mg/ml acetylated BSA, RT, 40 nM DNA; TPM: 50 mM KCl; bridging: 50 mM KCl, 25 C. The following applies: protein: recombinant; chain copies: 2; label: 5'-Cy5 top strand; blunt.
Series [7] addresses T1, Rok. The series can be described thus: bridging pull-down; 0.27 uM Rok, bait N1; minimal bridged length; MST: 10 mM Tris-HCl pH 8, 150 mM KCl, 5% glycerol, 0.05% Tween20, 0.08 mg/ml acetylated BSA, RT, 40 nM DNA; TPM: 50 mM KCl; bridging: 50 mM KCl, 25 C. The following applies: protein: recombinant; chain copies: 2; label: 32P; blunt.

Changes are numbered by the printed parent chain.

As for 685 bp AT-rich (32% GC) DNA, the figures for the K half in series [1] and in series [2] were 6.1 nM and 8.8 nM, respectively.

Take small Rok (sRok) (natural protein): the DNA recovery (%) in the DNA bridging assay with different Rok:sRok ratios (total protein 0.5 uM, 50 mM KCl + 1 mM MgCl2, 25°C); value at 20% sRok; Rok here is the untagged protein in series [3] is 40%.

B1: MST aspecific 78 bp (dsDNA)
DNA 1: CGGCGCAAATTCGTGACCAGTTGCATCAGCTGCGTGAGCTGTTTATCGCAGCATCGTAACAGGATAGTGAAGAAGACT
DNA 2: AGTCTTCTTCACTATCCTGTTACGATGCTGCGATAAACAGCTCACGCAGCTGATGCAACTGGTCACGAATTTGCGCCG
As for B1, the results for the Kd in series [4] and in series [5] were 34.6 ± 8 µM and 79.4 ± 20 µM, respectively.

B2: MST specific 78 bp (TACTA) (dsDNA)
DNA 1: B1 DNA 1 with G32A, G34T, T35A
DNA 2: B1 DNA 2 with A44T, C45A, C47T
In the case of B2, the Kd (usually the concentration at which binding is half-saturated) in series [6] was roughly 100 µM.

B3: 100 bp prey (dsDNA)
DNA 1: GATATATGGACTCTTAGTGGCAAATATATAATGTATAAGTTCTGGAGTAGTATGGTAATAACTATTTTATTTTCGATAGCTTGAATGTTTATTTTCCCAG
DNA 2: CTGGGAAAATAAACATTCAAGCTATCGAAAATAAAATAGTTATTACCATACTACTCCAGAACTTATACATTATATATTTGCCACTAAGAGTCCATATATC
B3: the binding result in series [7] is on record as “binds”.
